Laboratory results from publication PMC12014896 (2025).

B1: COVIC-312 (antibody)
chain 1: QVQLVQSGAEVKKPGSSVKVSCKASGGTFGISWVRQAPGQGLEWMGRIIPILGTANHAQKFQGRVTITADKSTGTVYMELSSLRSEDTAVYYCARDGDSGSYYETLGFDYWGQGTLVTVSSGGGGSGGGGSGGGGEVQLVESGGGLVKPGGSLRLSCAASGFTFSPYSMNWVRQAPGKGLEWVSSISVSNIYTYYADSVKGRFTISRDNAKNSLYLQMNSLRAEDTAIYYCARDLKKGGIQYDAFDIWGQGTVVTVSS
chain 2: QSALTQPPSASGSPGQSVTISCTGTSSDVGGYNYVSWYQQHPGKAPKLMIYEVNKRPSGVPDRFSGSKSGNTASLTVSGLQAEDEADYYCSSYAGSNNLVFGGGTKLTVLGGGGSGGGGSGGGGEIVLTQSPATLSLSPGERATLSCRASQSVNDYLAWYQQKPGQAPRLLIYDASNRATGFPARFSGSGSGTDFTLTISSLEPEDFAVYYCQQRSNWPPTFGQGTRLEIK
B2: COVIC-317 (antibody)
chain: EVQLLESGGGLVQPGGSLRLSCAASGRTFSEYAMGWFRQAPGKGLEFVSTISWSGGSTYYADSVKGRFTISRDNSKNTLYLQMNSLRAEDTAVYYCAAAGLGTVVSEWDYDYDYWGQGTLVTVSSGGGGSGGGGSASTKGPSVFPLAPSSKSTSGGTAALGCLVKDYFPEPVTVSWNSGALTSGVHTFPAVLQSSGLYSLSSVVTVPSSSLGTQTYICNVNHKPSNTKVDKKVEPKSCDKTHTAPELLGGPSVFLFPPKPKDTLMISRTPEVTCVVVDVSHEDPEVKFNWYVDGVEVHNAKTKPREEQYNSTYRVVSVLTVLHQDWLNGKEYKCKVSNKALPAPIEKTISKAKGQPREPQVYTLPPSRDELTKNQVSLTCLVKGFYPSDIAVEWESNGQPENNYKTTPPVLDSDGSFFLYSKLTVDKSRWQQGNVFSCSVMHEALHNHYTQKSLSLSPGKKKKPLDGEYFTLQIRGRERFEMFRELNEALELKDAQAGKEPGGGGGSGGGGSEVQLLESGGGLVQPGGSLRLSCAASGRTFSEYAMGWFRQAPGKGLEFVSTISWSGGSTYYADSVKGRFTISRDNSKNTLYLQMNSLRAEDTAVYYCAAAGLGTVVSEWDYDYDYWGQGTLVTVSS
B3: COVIC-156 (antibody, V domains shown)
VH: EVQLVESGGGLIQPGGSLRLSCAASGVTVSSNYMNWVRQAPGKGLEWVSVIYSGGSTYYADSVKGRFTISRDNSKNTLFLQMNSLRAEDSAVYYCARDLGPYGVDVWGQGTTVTVSS
VL: DIQLTQSPSFLSASVGDRVTITCWASQGISSYLAWYQQKPGKAPKLLIYAASTLQSGVPSRFSGSGSGTEFTLTISSLQPEDFATYYCQELNSYPLTFGQGTRLEIKR
B4: COVIC-153 (antibody, V domains shown)
VH: EVQLVESGGGLIQPGGSLRLSCAASGLTVSSNYMSWVRQAPGKGLEWVSIIYSGGSTYYADSVKGRFTISRDNSKNTLYLQMNSLRAEDTAVYYCARLGGYYYYGMDVWGQGTTVTVSS
VL: DIQMTQSPSSLSASVGERVTITCQASQDIRNYLNWYQKKPGKAPKLLIYDSSNLETGVPSRFSGSGSGTDFTFTISSLQPEDIATYYCQQYDNLPITFGQGTRLEIKR
B5: COVIC-265 (antibody, V domains shown)
VH: QVQLVESGGGLVQPGGSLRLSCTVSGIDLSSYAMGWVRQAPGKGLEYIGIISGSGSTDYANWAKGRFTISRDNSKNTLYLQMNSLRAEDTAVYYCARAGYGVYGYAKYYGMDPWGQGTLVTVSS
VL: DIQMTQSPSSLSASVGDRVTITCKASEDIHYGLNWYQQKPGKAPKLLIYGATTLESGVPSRFSGSGSGTDFTLTISSLQPEDFATYYCQQGYSTPLTFGGGTKVEIK
B6: COVIC-392 (antibody, V domains shown)
VH: QVQLLESGGGLVQPGRSLRLSCAASGFTFDDYAMHWVRQPPGKGLEWVSGSSWNSGSVVYADSVKGRFTISRDSAKNSLHLQMNSLRVEDTALYYCAKAVDPTRGSYSPDYGFDIWGQGTMVTVS
VL: not shown
B7: COVIC-296 (antibody, V domains shown)
VH: EVQLVESGGGLVQPGGSLRLSCAASGITVSSNYMNWVRQAPGKGLEWVSVIYSGGSTFYADSVKGRFTVSRHNSKNTLYLQMNSLRVEDTAVYYCAREGLVGTALAFDYWGQGNLVTVSS
VL: DIQMTQSPSSLSASVGDRVTITCRASQSINNYLNWYQQKPGKAPNLLIYAASSLQSGVPSRFSGSGSGTDFTLTINSLQPEDFATYYCQQSYSTPPYTFGQGTKLEIK
B8: COVIC-238 (antibody, V domains shown)
VH: QVQLVQSGSELKKPGASVKVSCKASGYTFTTYVMNWVRQAPGQGLEWMGWINTNTGNPTYAQGFTGRFVFSLDTSVSTASLQISSLKAEDTAVYYCSSEITTLGGMDVWGQGTTVTVSS
VL: ASYVLTQPPSVSVAPGKTARITCGGNNIGSKSVHWYQQKPGQAPVLVIYYDSDRPSGIPERFSGSNSGNTATLTISGVEAGDEADYYCQVWDSISDHRVFGGGTKLTVLG
B9: COVIC-322 (antibody)
chain 1: EVQLLESGGGLVQPGGSLRLSCAASGRTFSEYAMGWFRQAPGKGLEFVSTISWSGGSTYYADSVKGRFTISRDNSKNTLYLQMNSLRAEDTAVYYCAAAGLGTVVSEWDYDYDYWGQGTLVTVSSGGGGSGGGGSASTKGPSVFPLAPSSKSTSGGTAALGCLVKDYFPEPVTVSWNSGALTSGVHTFPAVLQSSGLYSLSSVVTVPSSSLGTQTYICNVNHKPSNTKVDKKVEPKSCDKTHTAPELLGGPSVFLFPPKPKDTLMISRTPEVTCVVVDVSHEDPEVKFNWYVDGVEVHNAKTKPREEQYNSTYRVVSVLTVLHQDWLNGKEYKCKVSNKALPAPIEKTISKAKGQPREPQVYTLPPSRDELTKNQVSLTCLVKGFYPSDIAVEWESNGQPENNYKTTPPVLDSDGSFFLYSKLTVDKSRWQQGNVFSCSVMHEALHNHYTQKSLSLSPGKKKKPLDGEYFTLQIRGRERFEMFRELNEALELKDAQAGKEPG
chain 2: EVQLLESGGGLVQPGGSLRLSCAASGRTFSEYAMGWFRQAPGKGLEFVSTISWSGGSTYYADSVKGRFTISRDNSKNTLYLQMNSLRAEDTAVYYCAAAGLGTVVSEWDYDYDYWGQGTLVTVSSGGGGSGGGGSKRTVAAPSVFIFPPSDEQLKSGTASVVCLLNNFYPREAKVQWKVDNALQSGNSQESVTEQDSKDSTYSLSSTLTLSKADYEKHKVYACEVTHQGLSSPVTKSFNRGEC
B10: COVIC-22 (antibody, V domains shown)
VH: EVQLLESGGGLVQPGGSLRLSCAASGFTFSRHAMNWVRQAPGKGLEWVSGISGSGDETYYADSVKGRFTISRDNSKNTLYLQMNSLRAEDTAVYYCARDLPASYYDSSGYYWHNGMDVWGQGTLVTVSS
B11: COVIC-292 (antibody, V domains shown)
VH: QMQLVQSGPEVKKPGTSVKVSCKASGFTFSGSAVQWVRQARGQRLEWIGWIVVGSGNTNYAQRFQERVTITRDMSTSTAYMELSSLRSEDTAVYYCAAPYCSSTSCRDGFDIWGQGTMVTVSS
VL: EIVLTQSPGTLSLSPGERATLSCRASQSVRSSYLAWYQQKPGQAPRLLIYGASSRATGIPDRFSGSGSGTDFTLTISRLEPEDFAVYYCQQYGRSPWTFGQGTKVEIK
B12: COVIC-63 (antibody)
chain: QVQLQESGGGLVQAGGSLRLSCAASGRTFSEYAMGWFRQAPGKEREFVATISWSGGSTYYTDSVKGRFTISRDNAKNTVYLQMNSLKPDDTAVYYCAAAGLGTVVSEWDYDYDYWGQGTQVTVSSGGSGGSQVQLQESGGGLVQAGGSLRLSCAASGRTFSEYAMGWFRQAPGKEREFVATISWSGGSTYYTDSVKGRFTISRDNAKNTVYLQMNSLKPDDTAVYYCAAAGLGTVVSEWDYDYDYWGQGTQVTVSSGGGGSGGGGSEPKSCDKTHTCPPCPAPELLGGKKKPLDGEYFTLQIRGRERFEMFRELNEALELKDAQAGKEPG
B13: COVIC-121 (antibody)
chain: QVQLQESGGGLVQAGGSLRLSCAASGRTFSEYAMGWFRQAPGKEREFVATISWSGGSTYYTDSVKGRFTISRDNAKNTVYLQMNSLKPDDTAVYYCAAAGLGTVVSEWDYDYDYWGQGTQVTVSSGGSGGSQVQLQESGGGLVQAGGSLRLSCAASGRTFSEYAMGWFRQAPGKEREFVATISWSGGSTYYTDSVKGRFTISRDNAKNTVYLQMNSLKPDDTAVYYCAAAGLGTVVSEWDYDYDYWGQGTQVTVSSGGGGSGGGGSKKKPLDGEYFTLQIRGRERFEMFRELNEALELKDAQAGKEPGGGGGSGGGGSQVQLQESGGGLVQAGGSLRLSCAASGRTFSEYAMGWFRQAPGKEREFVATISWSGGSTYYTDSVKGRFTISRDNAKNTVYLQMNSLKPDDTAVYYCAAAGLGTVVSEWDYDYDYWGQGTQVTVSS
B14: COVIC-162 (antibody, V domains shown)
VH: QLQLQESGPGLVKPSETLSLTCTVSGGSISNSNYYWGWIRQPPGKGLEWIGSIYYSGRTYYNPSLKSRVTISVDTSKNQFSLKLSSVTAADTAVYYCARMGLLWFGEFYGMDVWGQGTTVTVSS
VL: DIQMTQSPSSLSASVGDRVTITCRASQGISSWLAWYQQKPEKAPKSLIYDASSLQRGVPSRFSGSGSGTDFTLTISSLQPEDFASYYCQQYNSYPLTFGGGTRVEIKR
B15: COVIC-333 (antibody, V domains shown)
VH: QVQLVQSGAEVKKPGSSVRVSCKASGGTFISYTFNWVRQAPGQGLEWMGRIIPIFGIVNYAQKFQGRVTIAADKSTSTAYMELSSLRSEDTAMYYCATATVDYDSGEEQSSFDPWGQGTLVTVSS
VL: EIVLTQSPGTLSLSPGERATLSCRASQSVSSSYLAWYQQKAGQTPRLLIYAASSRATGVPDRFSGSGSGTDFTLTISRLEAEDFAVYYCQQSWTFGQGTKVEIK
B16: COVIC-305 (antibody, V domains shown)
VH: QVQLVQSGAEVKKPGSSVRVSCKVSGYTFTGYYMHWVRQAPGQGLEWMGIINPSGGSTSYAQKFQGRVTMTRDTSTSTVYMELSSLRSEDTAVYYCARVRVGASDAFDIWGQGTMVTVSS
VL: SYVLTQPPSVSVAPGQTARITCGGNNIGSKSVHWYQQKPGQAPVLVVYDDSDRPSGIPERFSGSNSGNTATLIISRVEAGDEADYYCQVWDSSSVHYVFGTGTKLTVLG
B17: COVIC-336 (antibody, V domains shown)
VH: QITLKESGPTLVKPTQTLTLTCTFSGFSLSSGGVGVGWIRQPPGKALEWLALIYWDDDKRYRPSLKSRLTITRDTSTNQVVLTMTNMDPVDTATYFCARHQIATVFDHWGQGTLVTVSS
VL: QSALTQPASVSGSPGQSITISCTGTSSDVGGYNYVSWYQQHPGKAPKLMIYEVSNRPSGVSSRFSGSKSGNTASLTISGLQAEDEADYYCSSYTRSSPLVAFGGGTKVTVL
B18: COVIC-32 (antibody, V domains shown)
VH: QVQLLESGGGLVQPGGSLRLSCAASGFTFSSYAMSWVRQAPGKGLEWASAISGSGGSTYYADSVEGRFTISRDNSKNTLYLQMNSLRAEDTAVYYCAKDTGYCGDDCYIKLIRGGPDYWGQGTLVTVSS
VL: DIVMTQSPLSLPVTLGQPASISCRSSQSLVYSDGNTFLNWFQQRPGQSPRRLIYQVSNRDSGVPDRFSGSGSGTDFTLKISRVEAEDVGVYYCMQGTHWPRTFGQGTKLEIK

Target: SARS-CoV-2 spike RBD (Wuhan-Hu-1) (Severe acute respiratory syndrome …, UniProt P0DTC2)
Experiment: SPR

| Binder | Kd [nM] |
| --- | --- |
| B1 | 0.347 |
| B2 | 41.3 |
| B3 | 0.446 |
| B4 | 2.06 |
| B5 | 1.55 |
| B6 | 0.0871 |
| B7 | 0.501 |
| B8 | 0.873 |
| B9 | 30.2 |
| B10 | 0.414 |
| B11 | 6.71 |
| B12 | 185 |
| B13 | 195 |
| B14 | 191 |
| B15 | 0.0111 |
| B16 | 7.27 |
| B17 | 2.14 |
| B18 | 1.76 |
